Source: FireProtDB (doi:10.1002/prot.20212)
“And” between values parts separate entries of the source, which are not always exact repeats. Equal values may be shown once.

Settings: Capra hircus, 25 °C, GdnHCl, CD, Tris 20 mM, Na+ 80 mM, whole UniProt chain shown

B1: Alpha-lactalbumin wild type, P00712 (protein)
chain: MMSFVSLLLVGILFHATQAEQLTKCEVFQKLKDLKDYGGVSLPEWVCTAFHTSGYDTQAIVQNNDSTEYGLFQINNKIWCKDDQNPHSRNICNISCDKFLDDDLTDDIVCAKKILDKVGINYWLAHKALCSEKLDQWLCEKL
denaturant m value (pH 4.5, transition: 3): 1.34 kcal/mol/M and 1.19 kcal/mol/M
unfolding free energy (pH 4.5, transition: 3): 3.39 kcal/mol and 3.38 kcal/mol
denaturant m value (pH 4.5): 2.53 kcal/mol/M
unfolding free energy (pH 4.5): 6.79 kcal/mol
denaturant m value (pH 5.5): 2.75 kcal/mol/M
unfolding free energy (pH 5.5): 8.8 kcal/mol
denaturant m value (pH 7.5): 3 kcal/mol/M
unfolding free energy (pH 7.5): 10.2 kcal/mol
